Legend:
Experiment in all cases: NMR
Tyr5 = details: 25 °C; <60 mM (no added salt; only HCl/NaOH used for pH adjustment); none (water without buffer); folded dimer, free protein, about 1.5 mM
Tyr16 = details: 25 °C; <60 mM (no added salt; only HCl/NaOH used for pH adjustment); none (water without buffer); folded dimer, free protein, about 1.5 mM
Tyr47 = details: folded dimer
Lys32 = details: 25 °C; <60 mM (no added salt; only HCl/NaOH used for pH adjustment); none (water without buffer); folded dimer, free protein, about 1.5 mM
Lys30 = details: 25 °C; <60 mM (no added salt; only HCl/NaOH used for pH adjustment); none (water without buffer); folded dimer, free protein, about 1.5 mM
Lys12 = details: 25 °C; <60 mM (no added salt; only HCl/NaOH used for pH adjustment); none (water without buffer); folded dimer, free protein, about 1.5 mM
Lys53 = details: 25 °C; <60 mM (no added salt; only HCl/NaOH used for pH adjustment); none (water without buffer); folded dimer, free protein, about 1.5 mM
Lys55 = details: 25 °C; <60 mM (no added salt; only HCl/NaOH used for pH adjustment); none (water without buffer); folded dimer, free protein, about 1.5 mM
Lys56 = details: 25 °C; <60 mM (no added salt; only HCl/NaOH used for pH adjustment); none (water without buffer); folded dimer, free protein, about 1.5 mM
Lys6 = details: 25 °C; <60 mM (no added salt; only HCl/NaOH used for pH adjustment); none (water without buffer); folded dimer, free protein, about 1.5 mM
Lys45 = details: 25 °C; <60 mM (no added salt; only HCl/NaOH used for pH adjustment); none (water without buffer); folded dimer, free protein, about 1.5 mM
His31 = His31 (UniProt position 31, TIGIGHLLTKS); details: cited from earlier work

Substance: Ribbon-helix-helix (rhh) protein ORF56 from plasmid pRN1 (Sulfolobus islandicus (plasmid pRN1))
- pKa (Tyr5): 9.85 ± 0.01
- pKa (Tyr16): 9.85 ± 0.01
- pKa (Tyr47; 25 °C, <60 mM (no added salt; only HCl/NaOH used for pH adjustment), none (water without buffer), free protein, about 1.5 mM): >13.7
- pKa (Tyr47; cited from earlier work): above pH 13
- pKa (Lys32): 10.48 ± 0.01
- pKa (Lys30): 10.86 ± 0.01
- pKa (Lys12): 10.54 ± 0.01
- pKa (Lys53): 10.25 ± 0.02
- pKa (Lys55): 11.08 ± 0.04
- pKa (Lys56): 10.96 ± 0.03
- pKa (Lys6): 10.79 ± 0.01
- pKa (Lys45): 11.27 ± 0.02

Substance: T4 lysozyme (Enterobacteria phage T4 (Tequatrovirus T4))
- pKa (His31): 9
